The values that follow come from patent publication US20230227537A1 (VIB VZW, published 2023).

Assay [1] deals with T1, SARS-CoV RBD (SARS-CoV-1, UniProt P59594 320-502). As to the kind of experiment: SPR, His-tagged VHH on NTA chip, RBD as analyte. (Surface plasmon resonance follows binding to a sensor surface in real time, without labels.)
For assay [2], the target named is T2, 2019-nCoV RBD (purified recombinant) (SARS-CoV-2, UniProt P0DTC2 330-518). As to the kind of experiment: SPR, His-tagged VHH on NTA chip, RBD as analyte.
The target of assay [3] is SARS-CoV-1 spike, full length, on cells or on pseudotyped virus (SARS-CoV-1, UniProt P59594 14-1255). As to the kind of experiment: cell-based or functional assay.
The target in assay [4] is T1, SARS-CoV RBD.
Assay [5] has as its target T2, 2019-nCoV RBD (purified recombinant).
Assay [6] deals with T3, SARS-CoV NTD (N-terminal domain) (SARS-CoV-1, UniProt P59594 14-276).
T3 sequence: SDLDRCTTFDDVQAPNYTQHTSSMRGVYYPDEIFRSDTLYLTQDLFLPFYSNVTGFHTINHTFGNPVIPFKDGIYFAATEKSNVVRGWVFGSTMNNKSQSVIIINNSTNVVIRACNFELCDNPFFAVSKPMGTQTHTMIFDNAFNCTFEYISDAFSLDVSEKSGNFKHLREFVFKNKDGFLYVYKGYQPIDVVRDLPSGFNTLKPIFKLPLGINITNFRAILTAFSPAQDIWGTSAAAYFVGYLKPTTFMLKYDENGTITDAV
As to the kind of experiment: ELISA, coated antigen. (An ELISA detects its analyte on a solid surface through an enzyme-linked reagent.)

Assay [7] addresses SARS-CoV-2 RBD protein Avi-tag biotinylated (AcroBiosystems SPD-C82E9) (SARS-CoV-2, UniProt P0DTC2 330-518). As to the kind of experiment: competition AlphaLISA; competitor human ACE2-mFc. For orientation: Bead proximity is the source of the signal in Alpha formats.
The target in assay [8] is T4, WT SARS-CoV-2 RBD displayed on Saccharomyces cerevisiae (SARS-CoV-2, UniProt P0DTC2 331-518). As to the kind of experiment: flow cytometry, yeast cells displaying WT RBD.
Assay [9] concerns the target T5, Mouse IgG1 Fc fused SARS-CoV-2 RBD (Sino Biological) (SARS-CoV-2; mouse, UniProt P0DTC2 330-518). As to the kind of experiment: ELISA on coated SARS-CoV-2 RBD-muFc, anti-VHH-HRP, OD450 [upper graph].
Assay [10] has as its target T4, WT SARS-CoV-2 RBD displayed on ….
Assay [11] addresses T6, BSA (Bos taurus, UniProt P02769).
T6 construct: coated on the ELISA plate; also called negative control antigen
As to the kind of experiment: ELISA on coated BSA, anti-VHH-HRP, OD450 [upper graph].

In assay [12] the target is T6, BSA. As to the kind of experiment: ELISA on coated BSA, anti-VHH-HRP, OD450 [lower graph].
For assay [13], the target named is T5, Mouse IgG1 Fc fused SARS-CoV-2 RBD …. As to the kind of experiment: ELISA on coated SARS-CoV-2 RBD-muFc, anti-VHH-HRP, OD450 [lower graph].
The target is the same in assay [14].
The target of assay [15] is SARS-CoV-2 spike, full length, on cells or on pseudotyped/authentic virus (SARS-CoV-2, UniProt P0DTC2 14-1273). As to the kind of experiment: cell-based or functional assay.
The target of assay [16] is T5, Mouse IgG1 Fc fused SARS-CoV-2 RBD …. As to the kind of experiment: BLI, RBD-mFc on AMC tips, global 1:1 fit.

Substitutions are numbered along the chain they refer to.

T6 sequence (P02769 25-607 limits assumed): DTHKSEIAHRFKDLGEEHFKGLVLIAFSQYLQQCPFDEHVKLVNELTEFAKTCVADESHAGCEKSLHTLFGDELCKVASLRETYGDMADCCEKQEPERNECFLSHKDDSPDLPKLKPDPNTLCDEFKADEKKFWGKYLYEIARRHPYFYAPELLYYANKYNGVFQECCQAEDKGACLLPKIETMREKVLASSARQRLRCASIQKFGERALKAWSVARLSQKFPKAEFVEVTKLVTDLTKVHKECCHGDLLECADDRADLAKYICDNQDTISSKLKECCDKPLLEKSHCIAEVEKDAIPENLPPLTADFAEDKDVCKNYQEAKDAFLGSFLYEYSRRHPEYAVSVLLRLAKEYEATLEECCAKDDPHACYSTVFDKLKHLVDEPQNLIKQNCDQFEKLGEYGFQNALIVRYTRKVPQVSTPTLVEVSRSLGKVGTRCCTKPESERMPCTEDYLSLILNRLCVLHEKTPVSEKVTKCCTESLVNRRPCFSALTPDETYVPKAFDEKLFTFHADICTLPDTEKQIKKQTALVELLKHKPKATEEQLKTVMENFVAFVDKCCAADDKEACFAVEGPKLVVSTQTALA

B1: SARS VHH-72 (VHH)
VHH: QVQLQESGGGLVQAGGSLRLSCAASGRTFSEYAMGWFRQAPGKEREFVATISWSGGSTYYTDSVKGRFTISRDNAKNTVYLQMNSLKPDDTAVYYCAAAGLGTVVSEWDYDYDYWGQGTQVTVSS
As for B1, the Kd (usually the concentration at which binding is half-saturated) with SARS-CoV RBD [1] is 1.15 nM. Also, in assay [2], the dissociation constant Kd was found to be 38.7 nM. Besides, in assay [3], the “IC50, pseudotyped lentivirus neutralization, Huh7.5 cells, luciferase” value was 0.14 µg/mL. Further, in the assay with SARS-CoV RBD [4], the koff (commonly the rate constant with which the complex falls apart) worked out at 0.0033 s⁻¹ and the kon (usually the rate constant with which the complex forms) was 2.86e+06 M⁻¹ s⁻¹. Besides, in [5], the koff was 3.13 s⁻¹ and the on-rate (kon) was 8.09e+07 M⁻¹ s⁻¹. The binding result in [6] was “no binding”. In assay [7], the % inhibition (commonly how much of the control response was suppressed) worked out at 97% and the IC50 – broadly, the point on the concentration scale where inhibition reaches its midpoint – came out at 26.7 nM.

B2: VHH3.38 (VHH)
VHH: QVQLQESGGGLVQAGGSLRLSCAASGGTFNNYAMAWFRQAPGQERELVAAMFWSGLPKYYADSVKGRFTISTDDAKNTVYLQMNGLKPEDTAVYYCAADSRGWSDVGGMDYWGKGTQVTVSS
Regarding B2, in assay [8], the “concentration at which binding was just below saturation” value stood at 10 ng/mL. The EC50 (read off the curve) (usually the concentration that produces a half-maximal response) in [9] is roughly 0.04 µg/mL. Moreover, the 50% effective concentration (EC50 (read off the curve)) in [10] is roughly 0.001 µg/mL. Moreover, in assay [7], the “% inhibition” value amounted to 99% and the half-inhibitory concentration (IC50) was determined as 2.01 nM. Also, in the assay with BSA [11], the binding result is recorded as “no binding (tested: about 20 µg/ml)”.

B3: VHH3.55 (VHH)
VHH: QVQLQESGGGLVQAGGSLRLSCEVSGRTNDNYGVGWFRQVPGAERELVAAIRWSSISRYYKDSVKGRFTISRDNAKNTVYLQMDMLKPEDTAAYYCAADPAGWSEFGMEYWGKGTQVTVSS
Take B3: the “concentration at which binding was just below saturation” value in [8] came out at 10 ng/mL. The binding result with BSA [12] is recorded as “no binding (tested: about 20 µg/ml)”. In addition, the “EC50 (read off the curve)” value in assay [10] was roughly 0.002 µg/mL. Besides, in assay [7], the “% inhibition” value turned out to be 100% and the IC50 stood at 0.817 nM. The “EC50 (read off the curve)” value in assay [13] was roughly 0.01 µg/mL.

B4: D72-16: h1-VHH72-GS-hIgG1hinge-hIgG1Fc (Fc fusion)
chain: EVQLVESGGGLVQPGGSLRLSCAASGRTFSEYAMGWFRQAPGKEREFVATISWSGGSTYYTDSVKGRFTISRDNAKNTVYLQMNSLRPEDTAVYYCAAAGLGTVVSEWDYDYDYWGQGTLVTVSSGS
notes: ExpiCHO
Regarding B4, the EC50 (usually the concentration that produces a half-maximal response) in [14] worked out at 0.00965 µg/mL. Besides, the “IC50, plaque reduction neutralization, authentic SARS-CoV-2” value in assay [15] worked out at 0.94 µg/mL. In assay [16], this molecule came in with an equilibrium dissociation constant (Kd) of 0.102 nM, a koff of 0.000191 s⁻¹ and an on-rate (kon) of 1.89e+06 M⁻¹ s⁻¹.

B5: D72-02: VHH72-GS-hIgG1hinge-hIgG1Fc (Fc fusion)
chain: B4 chain with E1Q, V5Q, P14A, R87K, E89D, L120Q
On to B5, for which a half-maximal response in assay [14] (EC50) required 0.00695 µg/mL. For the same molecule, the “IC50, plaque reduction neutralization, authentic SARS-CoV-2” value in assay [15] came to 1.01 µg/mL. In addition, in assay [16], the equilibrium dissociation constant (Kd) amounted to 0.142 nM, the koff was determined as 0.00026 s⁻¹ and the kon is 1.83e+06 M⁻¹ s⁻¹.
